# Assay results from article PMC5216914.
# Read-outs that look alike come from different tables or passages of the source.
substance,measurement,setting,value
cSrc: Y527F,enzymatic_activity,phosphorylation at Y527,increases
cSrc: Y416F,enzymatic_activity,phosphorylation at Y416,abolishes
